For the test, the target named is T1, recombinant extracellular part of PSMA (construct not named; ELISA and SPR) (human, UniProt Q04609 44-750).
T1 construct: prostate-specific membrane antigen (PSMA), recombinant extracellular part; also called recombinant extracellular domain of PSMA; truncated version of the target enzyme
The following applies: both partners purified.

Starred links: 1 amine or outer side, 2 acyl side, 3 side chain; linkers in the order of their positions; H or OH if unused. Positions of bridges follow the written chain, without caps; N, C: chain ends. Groups on a side chain read outwards from the residue. *: point of attachment. PEG12 = NCCOCCOCCOCCOCCOCCOCCOCCOCCOCCOCCOCCOCCC(=O)O; Biotin = O=C1N[C@H]2[C@H](CS[C@H]2CCCCC(=O)*)N1; TBMB = c1c(C[*:1])cc(C[*:3])cc1C[*:2] A value given as a limit tells only on which side of the number the result lay.

T1 sequence (Q04609 44-750): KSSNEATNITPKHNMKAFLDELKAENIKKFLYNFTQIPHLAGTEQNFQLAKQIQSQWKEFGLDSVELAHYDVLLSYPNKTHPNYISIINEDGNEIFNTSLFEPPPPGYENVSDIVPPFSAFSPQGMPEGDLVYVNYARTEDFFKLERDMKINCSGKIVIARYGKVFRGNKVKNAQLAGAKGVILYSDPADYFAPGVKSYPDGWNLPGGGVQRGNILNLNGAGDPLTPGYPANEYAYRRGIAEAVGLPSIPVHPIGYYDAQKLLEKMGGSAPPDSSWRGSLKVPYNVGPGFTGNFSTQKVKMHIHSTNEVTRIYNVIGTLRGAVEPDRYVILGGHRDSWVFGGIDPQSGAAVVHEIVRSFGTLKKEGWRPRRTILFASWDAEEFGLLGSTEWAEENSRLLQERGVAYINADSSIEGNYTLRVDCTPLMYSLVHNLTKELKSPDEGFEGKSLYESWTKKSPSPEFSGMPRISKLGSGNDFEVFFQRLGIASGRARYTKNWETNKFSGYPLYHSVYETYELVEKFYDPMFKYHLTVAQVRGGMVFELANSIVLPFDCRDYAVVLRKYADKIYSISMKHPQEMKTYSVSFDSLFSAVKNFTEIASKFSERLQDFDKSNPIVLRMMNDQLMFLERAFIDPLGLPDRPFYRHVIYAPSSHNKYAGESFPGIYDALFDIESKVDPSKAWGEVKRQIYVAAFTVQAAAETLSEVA

B1: iBody 1, poly(HPMA-co-Ma-β-Ala-compound 2-co-Ma-β-Ala-ATTO488-co-Ma-β-Ala-NH-ED-biotin) (designed binder)
peptide: CDDECPDYVCGGSGK
modifications: not fully specified; N-terminus acetylated; C-terminal amide; three cysteines cyclized with TBMB; lysine side chain carries (CO)CH2CH2(OCH2CH2)5-NH2 (compound 2), through which the peptide is joined to the HPMA copolymer backbone; the polymer also carries ATTO488 (3.0× per polymer) and biotin (11.6× per polymer)
notes: bicyclic Peptide 1 as compound 2, 9.8 copies per polymer (20.4 wt%); Not a polypeptide as a whole: about 9.8 copies of the peptide on a synthetic HPMA copolymer (Mn = 88,100 g/mol, Mw = 104,000 g/mol); also called the iBody; copies: 9.8
For B1, the EC50 is 2 nM.

B2: Peptide 1 (compound 1), TBMB-cyclized Ac-CDDECPDYVCGGSGK[PEG12-biotin]-NH2 (peptide)
peptide: Ac-CDDECPDYVCGGSGK([PEG12-Biotin])-NH2
modifications: linker 1-5-10 via TBMB
SMILES: CC(=O)N[C@H]1CSCc2cc3cc(c2)CSC[C@H](NC(=O)[C@H](CCC(=O)O)NC(=O)[C@H](CC(=O)O)NC(=O)[C@H](CC(=O)O)NC1=O)C(=O)N1CCC[C@H]1C(=O)N[C@@H](CC(=O)O)C(=O)N[C@@H](Cc1ccc(O)cc1)C(=O)N[C@@H](C(C)C)C(=O)N[C@H](C(=O)NCC(=O)NCC(=O)N[C@@H](CO)C(=O)NCC(=O)N[C@@H](CCCCNC(=O)CCOCCOCCOCCOCCOCCOCCOCCOCCOCCOCCOCCOCCNC(=O)CCCC[C@@H]1SC[C@@H]2NC(=O)N[C@@H]21)C(N)=O)CSC3
notes: bicyclic peptide selected by phage display against PSMA, with the GGSG spacer and an added lysine; also called the peptide; bicyclic peptide; source: synthetic peptide (SPPS, TBMB cyclization, RP HPLC); not shown: biotin (through a PEG12 linker on the C-terminal lysine), C-terminal, kept
As for B2, the EC50 is over 5000 nM.

A word on the EC50: it is the concentration at which the effect is half-maximal.

For the origin of these results see paper PMC8600089, “The development of a high-affinity conformation-sensitive antibody mimetic using a biocompatible copolymer carrier (iBody)” (The Journal of Biological Chemistry, 2021).
